Experimental data published in US20250129150A1.

Molecular target: recombinant human C1q (human) (UniProt P02745)
Assay: SPR, antibody captured on anti-kappa chip, C1q as analyte; signal relative to rituximab

recombinant human C1q (human), sequence (P02745 23-245 limits assumed, chain 1 of 3): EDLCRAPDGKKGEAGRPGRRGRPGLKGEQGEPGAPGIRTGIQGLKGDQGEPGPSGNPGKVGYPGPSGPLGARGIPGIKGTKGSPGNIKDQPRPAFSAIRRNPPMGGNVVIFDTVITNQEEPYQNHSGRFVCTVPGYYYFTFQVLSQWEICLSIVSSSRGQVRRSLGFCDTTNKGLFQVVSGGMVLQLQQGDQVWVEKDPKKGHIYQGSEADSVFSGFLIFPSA
recombinant human C1q (human), sequence (P02746 28-253 limits assumed, chain 2 of 3, further chain): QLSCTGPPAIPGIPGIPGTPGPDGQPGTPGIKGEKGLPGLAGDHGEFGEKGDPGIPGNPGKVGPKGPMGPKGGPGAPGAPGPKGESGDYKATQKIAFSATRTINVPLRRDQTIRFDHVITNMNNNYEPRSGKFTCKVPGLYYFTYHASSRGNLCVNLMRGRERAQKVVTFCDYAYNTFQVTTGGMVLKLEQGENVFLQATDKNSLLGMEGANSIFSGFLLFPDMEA
recombinant human C1q (human), sequence (P02747 29-245 limits assumed, chain 3 of 3, further chain): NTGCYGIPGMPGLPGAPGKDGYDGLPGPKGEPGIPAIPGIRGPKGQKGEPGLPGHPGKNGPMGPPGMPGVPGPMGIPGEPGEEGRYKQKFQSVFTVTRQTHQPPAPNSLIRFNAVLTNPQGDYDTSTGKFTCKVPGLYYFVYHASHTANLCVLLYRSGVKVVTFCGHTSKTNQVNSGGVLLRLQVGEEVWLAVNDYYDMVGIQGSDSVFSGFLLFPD
Lebrikizumab (Construct 1) (antibody; other documents disagree on this pair), sequence (heavy): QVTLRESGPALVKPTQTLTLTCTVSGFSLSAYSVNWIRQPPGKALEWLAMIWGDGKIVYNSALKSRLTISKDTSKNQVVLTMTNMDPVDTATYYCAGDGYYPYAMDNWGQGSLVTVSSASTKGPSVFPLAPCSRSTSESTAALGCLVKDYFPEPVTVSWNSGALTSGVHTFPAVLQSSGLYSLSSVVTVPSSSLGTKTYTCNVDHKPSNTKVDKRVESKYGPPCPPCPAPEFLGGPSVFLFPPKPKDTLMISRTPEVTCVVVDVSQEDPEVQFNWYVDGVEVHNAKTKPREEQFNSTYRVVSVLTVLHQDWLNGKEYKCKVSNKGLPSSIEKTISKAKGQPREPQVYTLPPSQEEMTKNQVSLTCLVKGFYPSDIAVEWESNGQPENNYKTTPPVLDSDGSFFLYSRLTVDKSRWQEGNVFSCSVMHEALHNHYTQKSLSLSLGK
Lebrikizumab (Construct 1) (antibody; other documents disagree on this pair), sequence (light): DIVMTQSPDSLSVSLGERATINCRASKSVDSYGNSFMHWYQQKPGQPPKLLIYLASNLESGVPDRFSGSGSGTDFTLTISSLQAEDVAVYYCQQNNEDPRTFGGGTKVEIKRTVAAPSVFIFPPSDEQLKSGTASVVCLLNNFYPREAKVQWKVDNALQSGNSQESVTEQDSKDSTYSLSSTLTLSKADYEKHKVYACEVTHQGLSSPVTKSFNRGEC

## Lebrikizumab (Construct 1) (antibody; other documents disagree on this pair)
  C1q (Signal Relative to Rituximab): 39.6%
